The subject of one assay is mice (Matrigel plugs). Put plainly: In vivo vascularization of Matrigel sponges. Also noted: species or system mouse. Conditions: Gal1 0.1 or 3 μM; 6 days; hemoglobin content. Here is the method:
Invasion assays were performed using the BioCoat Angiogenesis system (BD Biosciences) following manufacturer's recommendations. For assessment of in vivo angiogenesis, growth factor-reduced Matrigel (BD Biosciences) was mixed with Gal1 (0.1 or 3 μM) with or without lactose (30 mM). In another set of experiments, serum-free CM from KS cells infected or not with a retroviral vector expressing Gal1 shRNA and cultured under hypoxic or normoxic conditions, were added to unpolymerized Matrigel and injected subcutaneously into the flanks of either wild-type or Lgals1^−/− (B6) mice or nude mice using a cold syringe. Matrigel embedded with buffer alone was used as negative control and a cocktail containing VEGF (50 ng/ml), heparin (50 U/ml) and TNF (2 ng/ml) was used as positive control. After 6 days, Matrigel plugs were collected by surgery, photographed and weighed. Samples were minced and diluted in water to measure hemoglobin content using the Drabkin reagent kit (Sigma). Each sample was normalized to 100 mg of recovered gel and confronted with a standard curve of mouse blood hemoglobin.

Assay [1] concerns EBV-specific CD8+ T cells. Put plainly: rGal1-induced killing of EBV-specific CTLs. Type of assay: cell-based, human. Conditions: rGal1 alone, 1.25, 2.5 or 5 μM; 4 h; 7AAD. The protocol:
After informed consent, 40-60 ml of peripheral blood from healthy donors was used to generate both EBV-transformed LCLs and EBV-specific CTLs (Straathof et al. (2005) Blood 105:1898-904). In brief, 5×10^6 peripheral blood mononuclear cells (PBMCs) were incubated with concentrated culture supernatant from the marmoset B-lymphoblastoid cell line, B95-8, in the presence of 1 μg/ml cyclosporin A (Sandoz, Vienna, Austria) to establish a LCL. Subsequently, PBMCs (2×10^6 per well of a 24-well plate) were stimulated with irradiated LCLs (at 4,000 rads) at an effector-stimulator (E/S) ratio of 40:1. After 10 days, viable cells were restimulated with irradiated LCLs (at 4:1 E/S ratio). CTLs were expanded by weekly stimulations with autologous irradiated LCLs (at 4:1 E/S ratio) in the presence of recombinant human interleukin-2 (rhIL-2, Proleukin; Chiron Emeryville, Calif.) at concentration of 40 U/ml. After 5 cycles of stimulation, CTLs were tested for EBV specificity and cryopreserved. […]
CTLs were thawed in AIM-V media (Invitrogen) containing 10 U/ml of DNAse I (Roche Applied Science, Indianapolis, Ind.) and rested in culture overnight. […] After 4 hours, the viability of EBV-specific CD8^+ T cells was measured using 7AAD and APC-Cy7-labelled CD8 (BD Biosciences, San Jose, Calif.).

Another assay has as its system KS tumors. Kind of assay: KS xenograft in nude mice. Type of assay: in vivo. The protocol:
HUVEC transfected or not with specific siRNA or pre-incubated with signaling pathway inhibitors were exposed to VEGF or Gal1 with or without lactose, sucrose, 8F4F8G7 mAb or control isotype (IgG1κ) or specific antibodies for VEGFR1 (AP-MAB0702; Abcam), VEGFR2 (AF357; R&D), VEGFR3 (AB89501; Abcam) or VEGF (MAB293; R&D). Cells were processed for proliferation, migration, invasion and tube formation assays. Tumor-associated blood vessels were identified by flow cytometry using Alexa Fluor 647-conjugated anti-CD34 antibody (RAM34; eBioscience).
Wild-type KS cells or shRNA clones (5×10^6 cells) were injected subcutaneously into 6- to 8-week old nude mice. Wild-type B16 cells or shRNA clones (2×10^5 cells) were injected into 6- to 8-week old B6 or B6/Rag^−/− mice and tumor development was monitored as described in Rubinstein et al. (2004) Cancer Cell 5, 241-251. Treatments with 8F4F8G7 mAb or control isotype (2.5, 7.5 or 15 mg/kg; i.p. injections every three days) were initiated when tumors reached 100 mm^3. […] At 2 weeks after tumor challenge, lymph node cells (5×10^5 cells/well) were restimulated for 72 h with 1×10^4 irradiated (4,000 rads) B16 cells and were analyzed for proliferation and cytokine production. […] CFSE^+ cells or PerCP-labeled beads were analyzed after 24 h or 15 min respectively by flow cytometry in tumor parenchyma and spleen.

In the next assay the test system is VEGFR2. Put plainly: Immunoblot of VEGFR2 phosphorylation in HUVEC. Type of assay: cell-based, human. The protocol: Array (Cell Signaling) following manufacturer's directions. For co-immunoprecipitation, 500 μg cell lysates were incubated with 2 μg of anti-VEGFR2 (55B11; Cell Signaling) or anti-NRP-1 (C-19; Santa Cruz Biotechnol) antibodies. The immunocomplexes were captured with protein G PLUS-Agarose (Santa Cruz Biotechnol) and processed for immunoblot analysis as described in Ilarregui et al. (2009) Nat Immunol 10, 981-991. Equal amounts of protein were resolved by SDS-PAGE, blotted onto nitrocellulose membranes (GE Healthcare) and probed with anti-IκB-α (C21), anti-Erk1/2 (C14), anti-phospho-Erk1/2 (E4) or anti-actin (I-19) (all from Santa Cruz Biotechnol) or anti-Akt (9272), anti-phospho-Akt (9271S), anti-VEGFR2 (55B11), anti-phospho-VEGFR2 (19A10) (all from Cell Signaling) or anti-HIF-1α (mgc3; ABR BioReagent) antibodies or a rabbit anti-Gal1 IgG (1.5 μg/ml) obtained as described in Ilarregui et al. (2009) Nat Immunol 10, 981-991.
For orientation: A western blot detects proteins with antibodies after separation by electrophoresis.

Take rGal1: recombinant human galectin-1: the “vascularization of Matrigel sponges containing recombinant Gal1” value with mice (Matrigel plugs) is recorded as “rapidly became vascularized”. Besides, in assay [1], the “apoptosis of EBV-specific CD8+ T cells” value is “induced massive apoptosis”.

B1: anti-Gal1 monoclonal antibody 8F4F8G7 (antibody, V domains shown)
VH: EVQLQQSVAEFVRPGASVRLSCTASGFNIKNTYIHWVRQRPEQGLEWIGKIDPANGNTKYVPEFQGKATMTADTSSNTVYLHLSSLTSEDTAIYYCVDGYYGWYFAVWGTGTTVTVSS
VL: QAVVTQESALTTSPGETVTLTCRSSTGAVTTSNYANWVQEKPDHLFTGLIGATNNRAPGVPARFSGSLIGDKAVLTITGAQTEDEAIYFCALWYRNHFIFGSGTKVTVL
notes: Murine hybridoma mAb (deposit PTA-10535), lambda light chain; also called 14-19 8F4-F8-G7; clone 8F4.8F.67
With B1, in the assay with KS tumors (CD34+ ECs and tumor hemoglobin content, vs isotype control), the tumor microvasculature result is on record as “significant reduction”. Besides, the tumor growth entry with KS tumors (established KS tumors, 2.5, 7.5 or 15 mg/kg i.p. every three days) is “dose-dependent delay”. For the same molecule, in the assay on VEGFR2, the “VEGFR2 phosphorylation in response to Gal1” value is on record as “specifically inhibited”.
